Reference: the supplement of paper PMC10567573

B1: BTBD1 (parent)
chain: IVGFGLYGSIHGPTDYQVNIQIIE

Variants of: B1
Assay: protein stability index of a GFP-peptide fusion (GPS, HEK-293T) (PSI 1-6); higher = more stable
Settings: c terminus: a fixed tail appended
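Further: lentivirally expressed fusions sorted by FACS into six bins by GFP to DsRed ratio, PSI derived from sequencing read proportions per bin multiplied by bin number.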

| Variant | protein stability index |
| --- | --- |
| IVGCGLYGSIHGPTDYQVNIQIIE [F4C] | 2.29 |
| IVGPGLYGSIHGPTDYQVNIQIIE [F4P] | 1.87 |
| IVGGGLYGSIHGPTDYQVNIQIIE [F4G] | 1.56 |
| IVGHGLYGSIHGPTDYQVNIQIIE [F4H] | 2.54 |
| IVGDGLYGSIHGPTDYQVNIQIIE [F4D] | 2.64 |
| IVGAGLYGSIHGPTDYQVNIQIIE [F4A] | 1.97 |
| IVGKGLYGSIHGPTDYQVNIQIIE [F4K] | 2.39 |
| IVGFGLYGSIHGPTVYQVNIQIIE [D15V] | 2.67 |
| IVGFGLYGSIHGPTPYQVNIQIIE [D15P] | 2.37 |
| IVGFGLYGSIHGPTCYQVNIQIIE [D15C] | 2.97 |
| IVGFGLYGSIHGPTAYQVNIQIIE [D15A] | 2.57 |
| IVGFGLYGSIHGPTSYQVNIQIIE [D15S] | 3.04 |
| IVGFGLYGSIHGPTGYQVNIQIIE [D15G] | 2.52 |
| IVGFGLYGSIHGPTIYQVNIQIIE [D15I] | 3.86 |
| IVGFGLYGSIHGPTMYQVNIQIIE [D15M] | 2.99 |
| IVGFGLYGSIHGPTYYQVNIQIIE [D15Y] | 3.42 |
| IVGFGLYGSIHGPTEYQVNIQIIE [D15E] | 3.19 |
| IVGFGLYGSIHKPTDYQVNIQIIE [G12K] | 4.19 |
| IVGFGLYGSIHDPTDYQVNIQIIE [G12D] | 3.52 |
| IPGFGLYGSIHGPTDYQVNIQIIE [V2P] | 1.76 |
| IYGFGLYGSIHGPTDYQVNIQIIE [V2Y] | 2.16 |
| IQGFGLYGSIHGPTDYQVNIQIIE [V2Q] | 4.24 |
| IIGFGLYGSIHGPTDYQVNIQIIE [V2I] | 2.6 |
| ICGFGLYGSIHGPTDYQVNIQIIE [V2C] | 3.88 |

| Variant | protein stability index |
| --- | --- |
| IVGFGLYGSIHGPTDIQVNIQIIE [Y16I] | 3.59 |
| IVGFGLYGSIHGPTDWQVNIQIIE [Y16W] | 3.98 |
| IVGFGLYGSIHGPTDDQVNIQIIE [Y16D] | 2.5 |
| IVGFGLYGSIHGPTDMQVNIQIIE [Y16M] | 2.38 |
| IVGFGLYGSIHGPTDTQVNIQIIE [Y16T] | 4.3 |
| IVGFSLYGSIHGPTDYQVNIQIIE [G5S] | 1.62 |
| IVGFHLYGSIHGPTDYQVNIQIIE [G5H] | 2.33 |
| IVGFYLYGSIHGPTDYQVNIQIIE [G5Y] | 3.17 |
| IVGFKLYGSIHGPTDYQVNIQIIE [G5K] | 2.34 |
| IVGFRLYGSIHGPTDYQVNIQIIE [G5R] | 2.57 |
| IVGFQLYGSIHGPTDYQVNIQIIE [G5Q] | 3.76 |
| IVGFTLYGSIHGPTDYQVNIQIIE [G5T] | 2.89 |
| IVGFNLYGSIHGPTDYQVNIQIIE [G5N] | 3.75 |
| IVGFGLYGSIHGPTDYQVNIQIEE [I23E] | 2.23 |
| IVGFGLYGSIHGPTDYQVNIQILE [I23L] | 2.96 |
| IVGFGLYGSIHGPTDYQVNIQIYE [I23Y] | 2.12 |
| IVGFGLYGSIHGPTDYQVNIQIKE [I23K] | 2.13 |
| IVGFGLYGSIHGPTDYQVNIQISE [I23S] | 2.29 |
| IVGFGLYGSIHGPTDYQVNIQIPE [I23P] | 2.21 |
| IVGFGLYGSGHGPTDYQVNIQIIE [I10G] | 5.97 |
| IVGFGLYGSDHGPTDYQVNIQIIE [I10D] | 2.74 |
| IVGFGLYGSPHGPTDYQVNIQIIE [I10P] | 2.78 |
| IVGFGLYGSEHGPTDYQVNIQIIE [I10E] | 2.58 |
| IVGFGLYGSMHGPTDYQVNIQIIE [I10M] | 1.95 |

| Variant | protein stability index |
| --- | --- |
| IVGFGLYGSQHGPTDYQVNIQIIE [I10Q] | 3.45 |
| IVGFGLYGSIHGMTDYQVNIQIIE [P13M] | 2.48 |
| IVGFGLYGSIHGQTDYQVNIQIIE [P13Q] | 3.17 |
| IVGFGLYGSIHGRTDYQVNIQIIE [P13R] | 2.35 |
| IVGFGLYGSIHGVTDYQVNIQIIE [P13V] | 2.33 |
| IVGFGLYGSIHGGTDYQVNIQIIE [P13G] | 1.57 |
| IVGFGLYGSIHGTTDYQVNIQIIE [P13T] | 2.81 |
| IVGFGLYGSIHGLTDYQVNIQIIE [P13L] | 2.25 |
| IVGFGLYGSIHGFTDYQVNIQIIE [P13F] | 2.72 |
| IVGFGLYGWIHGPTDYQVNIQIIE [S9W] | 2.76 |
| IVGFGLYGRIHGPTDYQVNIQIIE [S9R] | 2.67 |
| IVGFGLYGIIHGPTDYQVNIQIIE [S9I] | 2.88 |
| IVGFGLYGEIHGPTDYQVNIQIIE [S9E] | 2.74 |
| IVGFGLYGAIHGPTDYQVNIQIIE [S9A] | 1.82 |
| IVGFGLYGFIHGPTDYQVNIQIIE [S9F] | 2.95 |
| IVVFGLYGSIHGPTDYQVNIQIIE [G3V] | 3.82 |
| IVRFGLYGSIHGPTDYQVNIQIIE [G3R] | 4.02 |
| IVPFGLYGSIHGPTDYQVNIQIIE [G3P] | 2.64 |
| IVEFGLYGSIHGPTDYQVNIQIIE [G3E] | 2.82 |
| IVNFGLYGSIHGPTDYQVNIQIIE [G3N] | 3.38 |
| IVKFGLYGSIHGPTDYQVNIQIIE [G3K] | 3.18 |
| IVGFGLYGSIHGPTDYQVTIQIIE [N19T] | 3.11 |
| IVGFGLYGSIHGPTDYQVGIQIIE [N19G] | 1.59 |
| IVGFGLYGSIHGPTDYQVVIQIIE [N19V] | 4.07 |

| Variant | protein stability index |
| --- | --- |
| IVGFGLYGSIHGPTDYQVPIQIIE [N19P] | 3.38 |
| SVGFGLYGSIHGPTDYQVNIQIIE [I1S] | 1.77 |
| VVGFGLYGSIHGPTDYQVNIQIIE [I1V] | 3.69 |
| KVGFGLYGSIHGPTDYQVNIQIIE [I1K] | 2.14 |
| QVGFGLYGSIHGPTDYQVNIQIIE [I1Q] | 3.04 |
| TVGFGLYGSIHGPTDYQVNIQIIE [I1T] | 1.82 |
| CVGFGLYGSIHGPTDYQVNIQIIE [I1C] | 2.91 |
| IVGFGLYLSIHGPTDYQVNIQIIE [G8L] | 2.81 |
| IVGFGLYRSIHGPTDYQVNIQIIE [G8R] | 1.45 |
| IVGFGLYDSIHGPTDYQVNIQIIE [G8D] | 2.86 |
| IVGFGLYFSIHGPTDYQVNIQIIE [G8F] | 2.78 |
| IVGFGLYYSIHGPTDYQVNIQIIE [G8Y] | 2.35 |
| IVGFGLYHSIHGPTDYQVNIQIIE [G8H] | 2.61 |
| IVGFGLYMSIHGPTDYQVNIQIIE [G8M] | 2.04 |
| IVGFGLYKSIHGPTDYQVNIQIIE [G8K] | 2.89 |
| IVGFGLYTSIHGPTDYQVNIQIIE [G8T] | 2.37 |
| IVGFGLYGSIHGPTDYQLNIQIIE [V18L] | 3.15 |
| IVGFGLYGSIHGPTDYQHNIQIIE [V18H] | 1.58 |
| IVGFGLYGSIHGPTDYQDNIQIIE [V18D] | 2.32 |
| IVGFGLYGSIHGPTDYQNNIQIIE [V18N] | 1.8 |
| IVGFGWYGSIHGPTDYQVNIQIIE [L6W] | 1.76 |
| IVGFGMYGSIHGPTDYQVNIQIIE [L6M] | 1.94 |
